Values quoted from earlier work in PMC4464844.

Key:
Tyr9 [1] = target: Tyr9 (UniProt position 9, RPKLHYPNGRG)
Tyr9 [2] = target: Tyr9 (UniProt position 9, KPKLHYFNGRG)
Tyr9 [3] = target: Tyr9 (UniProt position 9, KPKLHYFNARG)

**Q.** For “Glutathione transferase A4-4 (hGSTA4-4) (Homo sapiens)”, which pKa (Tyr9 [1]) is on record?
**A.** 6.7

**Q.** With “Glutathione transferase A1-1 GIMFhelix mutant (Homo sapiens; A12G;L107I;L108M;V111F;residues 208-222 replaced by the GSTA4-4 sequence)” as the substance, how does the pKa (Tyr9 [2]) read?
**A.** 7.3

**Q.** With “Glutathione transferase A1-1 (hGSTA1-1) (Homo sapiens)” as the substance, how does the pKa (Tyr9 [3]) read?
**A.** 8.1
